Test results taken from publication PMC3834884, “A fully caninised anti-NGF monoclonal antibody for pain relief in dogs” (BMC Veterinary Research, 2013).

B1: NV-01 (caN2-HCA1-kLC1), fully caninised anti-NGF monoclonal antibody (antibody, V domains shown)
VH: EVQLVESGGGLVQPGGSLRLSCVASGFSLTNNNVNWVRQAPGKGLEWVGGVWAGGATDYNSALKSRFTISRDNAKNTVFLQMHSLRSEDTAVYYCARDGGYSSSTLYAMDAWGQGTSVTVSS
VL: DIVMTQSPASLSLSQGETVTITCRASEDIYNALAWYQQKPGQAPKLLIYNTDTLHTGVPSRFSGSGSGTDFSLTISSLEPEDVAVYYCQHYFHYPRTFGQGTKVELK
notes: caN2 heavy chain variable domain (caninised rat alphaD11 VH, modified framework); caninised alphaD11 light chain variable domain (caN-kLC1); canine kappa light chain constant domain; Canine IgG-A, kappa; also called caninised anti-NGF mAb; copies: 2 + 2
B2: caN-HCB2 + kLC1, caninised anti-NGF antibody with canine IgG heavy chain isotype B (antibody, V domains shown)
VH: EVQLVESGGDLVNPGGTLTLSCVVSGFSLTNNNVNWVRQALGRGLEWVGGVWAGGATDYNSALKSRLTITRDTSKSTVFLKMHSLQSEDTATYYCARDGGYSSSTLYAMDAWGQGTLVTVSS
VL: DIVMTQSPASLSLSQGETVTITCRASEDIYNALAWYQQKPGQAPKLLIYNTDTLHTGVPSRFSGSGSGTDFSLTISSLEPEDVAVYYCQHYFHYPRTFGQGTKVELK
notes: caN heavy chain variable domain (first caninised alphaD11 VH); as the light chain variable domain of m1 (caN-kLC1); canine kappa light chain constant domain; Canine IgG-B, kappa; also called caN-HCB-kLC; type B anti-NGF antibody; source: CHO cells, transient transfection, supernatant; purified on protein A
B3: caN-HCD2 + kLC1, caninised anti-NGF antibody with canine IgG heavy chain isotype D (antibody, V domains shown)
VH: EVQLVESGGDLVNPGGTLTLSCVVSGFSLTNNNVNWVRQALGRGLEWVGGVWAGGATDYNSALKSRLTITRDTSKSTVFLKMHSLQSEDTATYYCARDGGYSSSTLYAMDAWGQGTLVTVSS
VL: DIVMTQSPASLSLSQGETVTITCRASEDIYNALAWYQQKPGQAPKLLIYNTDTLHTGVPSRFSGSGSGTDFSLTISSLEPEDVAVYYCQHYFHYPRTFGQGTKVELK
notes: caN heavy chain variable domain (first caninised alphaD11 VH); as the light chain variable domain of m1 (caN-kLC1); canine kappa light chain constant domain; Canine IgG-D, kappa; also called caN-HCD + kLC; ca-HCD2 + kLC1; source: CHO cells, transient transfection, supernatant; purified using Protein L
B4: caN-HCA1 + kLC1, caninised anti-NGF antibody with canine IgG heavy chain isotype A (antibody, V domains shown)
VH: EVQLVESGGDLVNPGGTLTLSCVVSGFSLTNNNVNWVRQALGRGLEWVGGVWAGGATDYNSALKSRLTITRDTSKSTVFLKMHSLQSEDTATYYCARDGGYSSSTLYAMDAWGQGTLVTVSS
VL: DIVMTQSPASLSLSQGETVTITCRASEDIYNALAWYQQKPGQAPKLLIYNTDTLHTGVPSRFSGSGSGTDFSLTISSLEPEDVAVYYCQHYFHYPRTFGQGTKVELK
notes: caN heavy chain variable domain (first caninised alphaD11 VH); as the light chain variable domain of m1 (caN-kLC1); canine kappa light chain constant domain; Canine IgG-A, kappa; also called caN-HCA + kLC; type A anti-NGF antibody; source: CHO cells, transient transfection, supernatant; purified using Protein L
B5: caN-HCC1 + kLC1, caninised anti-NGF antibody with canine IgG heavy chain isotype C (antibody, V domains shown)
VH: EVQLVESGGDLVNPGGTLTLSCVVSGFSLTNNNVNWVRQALGRGLEWVGGVWAGGATDYNSALKSRLTITRDTSKSTVFLKMHSLQSEDTATYYCARDGGYSSSTLYAMDAWGQGTLVTVSS
VL: DIVMTQSPASLSLSQGETVTITCRASEDIYNALAWYQQKPGQAPKLLIYNTDTLHTGVPSRFSGSGSGTDFSLTISSLEPEDVAVYYCQHYFHYPRTFGQGTKVELK
notes: caN heavy chain variable domain (first caninised alphaD11 VH); as the light chain variable domain of m1 (caN-kLC1); canine kappa light chain constant domain; Canine IgG-C, kappa; also called caN-HCC-kLC; type C anti-NGF antibody; source: CHO cells, transient transfection, supernatant; purified on Protein G

Assays:
[1] = biological target: T1, mouse nerve growth factor (muNGF) (Mus musculus, UniProt P01139); assay: SPR; ProteOn XPR36, GLM chip; muNGF amine-coupled (50 ug/mL, sodium acetate pH 4.5); NV-01 passed over at 500, 250, 125, 62.5 and 31.25 nM for 60 s; Langmuir fit; settings: both partners purified
T1 construct: mouse beta nerve growth factor; also called mouse NGF; murine NGF; source: bought: Biosensis (purified mouse NGF)
T1 sequence (P01139 122-241): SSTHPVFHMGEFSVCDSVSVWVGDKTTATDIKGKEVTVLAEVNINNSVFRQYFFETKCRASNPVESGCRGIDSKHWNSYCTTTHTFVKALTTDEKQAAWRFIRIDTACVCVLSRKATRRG

[2] = biological target: T1, mouse nerve growth factor (muNGF); assay: cell-based or functional assay
[3] = biological target: T1, mouse nerve growth factor (muNGF); assay: ELISA; plates coated with NGF (0.1 ug/ml muNGF; canine NGF in Figure 2A), blocked with 5% BSA/PBS; CHO cell supernatants with canine anti-NGF IgG 1 h at room temperature in PBS/1% BSA; detected with rabbit anti-canine IgG-HRP; settings: one partner purified
[4] = biological target: T2, canine nerve growth factor with a C-terminal poly-His tag (Canis lupus familiaris, UniProt A0A8I3PYI3); assay: as above; settings: one partner purified
T2 construct: canine beta NGF, expressed from a cDNA that encodes canine pre-pro beta NGF; the mature form is surmised; also called canine NGF; caNGF; source: HEK293 cells, transient transfection, purified from supernatant (Ni-HiTrap); not shown: poly-His, C-terminal, kept

Row | Binder | Kd [1] [pM] | IC50 of inhibition of NGF-induced proliferation of TF-1 cells (1 ng/ml NGF; NV-01 2.5 ng/ml to 0.002 ng/ml); blocked: NGF and its receptor on TF-1 cells [2] [ng/mL] | binding result [3] | binding result [4]
1 | B1 | < 1 | 0.02 | – | –
2 | B2 | – | – | binds | binds
3 | B3 | – | – | binds | –
4 | B4 | – | – | binds | –
5 | B5 | – | – | binds | –
